The values below come from article PMC6179184, “Interaction of the Warsaw breakage syndrome DNA helicase DDX11 with the replication fork-protection factor Timeless promotes sister chromatid cohesion” (PLoS Genetics, 2018).

B1: DDX11-3xFlag wild type [human] / endogenous Timeless (HEK 293T) [human (endogenous in HEK 293T)] (parent complex)
chain 1: MANETQKVGAIHFPFPFTPYSIQEDFMAELYRVLEAGKIGIFESPTGTGKSLSLICGALSWLRDFEQKKREEEARLLETGTGPLHDEKDESLCLSSSCEGAAGTPRPAGEPAWVTQFVQKKEERDLVDRLKAEQARRKQREERLQQLQHRVQLKYAAKRLRQEEEERENLLRLSREMLETGPEAERLEQLESGEEELVLAEYESDEEKKVASRVDEDEDDLEEEHITKIYYCSRTHSQLAQFVHEVKKSPFGKDVRLVSLGSRQNLCVNEDVKSLGSVQLINDRCVDMQRSRHEKKKGAEEEKPKRRRQEKQAACPFYNHEQMGLLRDEALAEVKDMEQLLALGKEARACPYYGSRLAIPAAQLVVLPYQMLLHAATRQAAGIRLQDQVVIIDEAHNLIDTITGMHSVEVSGSQLCQAHSQLLQYVERYGKRLKAKNLMYLKQILYLLEKFVAVLGGNIKQNPNTQSLSQTGTELKTINDFLFQSQIDNINLFKVQRYCEKSMISRKLFGFTERYGAVFSSREQPKLAGFQQFLQSLQPRTTEALAAPADESQASTLRPASPLMHIQGFLAALTTANQDGRVILSRQGSLSQSTLKFLLLNPAVHFAQVVKECRAVVIAGGTMQPVSDFRQQLLACAGVEAERVVEFSCGHVIPPDNILPLVICSGISNQPLEFTFQKRELPQMMDEVGRILCNLCGVVPGGVVCFFPSYEYLRQVHAHWEKGGLLGRLAARKKIFQEPKSAHQVEQVLLAYSRCIQACGQERGQVTGALLLSVVGGKMSEGINFSDNLGRCVVMVGMPFPNIRSAELQEKMAYLDQTLPRAPGQAPPGKALVENLCMKAVNQSIGRAIRHQKDFASVVLLDQRYARPPVLAKLPAWIRARVEVKATFGPAIAAVQKFHREKSASS
chain 2: MDLHMMNCELLATCSALGYLEGDTYHKEPDCLESVKDLIRYLRHEDETRDVRQQLGAAQILQSDLLPILTQHHQDKPLFDAVIRLMVNLTQPALLCFGNLPKEPSFRHHFLQVLTYLQAYKEAFASEKAFGVLSETLYELLQLGWEERQEEDNLLIERILLLVRNILHVPADLDQEKKIDDDASAHDQLLWAIHLSGLDDLLLFLASSSAEEQWSLHVLEIVSLMFRDQNPEQLAGVGQGRLAQERSADFAELEVLRQREMAEKKTRALQRGNRHSRFGGSYIVQGLKSIGERDLIFHKGLHNLRNYSSDLGKQPKKVPKRRQAARELSIQRRSALNVRLFLRDFCSEFLENCYNRLMGSVKDHLLREKAQQHDETYYMWALAFFMAFNRAASFRPGLVSETLSVRTFHFIEQNLTNYYEMMLTDRKEAASWARRMHLALKAYQELLATVNEMDISPDEAVRESSRIIKNNIFYVMEYRELFLALFRKFDERCQPRSFLRDLVETTHLFLKMLERFCRSRGNLVVQNKQKKRRKKKKKVLDQAIVSGNVPSSPEEVEAVWPALAEQLQCCAQNSELSMDSVVPFDAASEVPVEEQRAEAMVRIQDCLLAGQAPQALTLLRSAREVWPEGDVFGSQDISPEEEIQLLKQILSAPLPRQQGPEERGAEEEEEEEEEEEEELQVVQVSEKEFNFLDYLKRFACSTVVRAYVLLLRSYQQNSAHTNHCIVKMLHRLAHDLKMEALLFQLSVFCLFNRLLSDPAAGAYKELVTFAKYILGKFFALAAVNQKAFVELLFWKNTAVVREMTEGYGSLDDRSSSRRAPTWSPEEEAHLRELYLANKDVEGQDVVEAILAHLNTVPRTRKQIIHHLVQMGLADSVKDFQRKGTHIVLWTGDQELELQRLFEEFRDSDDVLGHIMKNITAKRSRARIVDKLLALGLVAERRELYKKRQKKLASSILPNGAESLKDFCQEDLEEEENLPEEDSEEEEEGGSEAEQVQGSLVLSNENLGQSLHQEGFSIPLLWLQNCLIRAADDREEDGCSQAVPLVPLTEENEEAMENEQFQQLLRKLGVRPPASGQETFWRIPAKLSPTQLRRAAASLSQPEEEQKLQPELQPKVPGEQGSDEEHCKEHRAQALRALLLAHKKKAGLASPEEEDAVGKEPLKAAPKKRQLLDSDEEQEEDEGRNRAPELGAPGIQKKKRYQIEDDEDD

The test covers variants of B1. Kind of test: co-immuno-precipitation (anti-Flag M2 agarose beads) with quantified Western blot; HEK 293T whole cell extracts, 48 hr post-transfection; three independent experiments; parent: 1; read off a plot. A general note: A western blot detects proteins with antibodies after separation by electrophoresis.
On to chain 1 E201K, chain 1 Y202A, chain 1 E203K, for which the ratio to parent was around 0.56. For chain 1 E201K, chain 1 Y202A the value was around 0.48.
